In publication PMC6526958:

B1: recombinant soluble human CD73 (Homo sapiens) (protein)
chain: ELTILHTNDVHSRLEQTSEDSSKCVNASRCMGGVARLFTKVQQIRRAEPNVLLLDAGDQYQGTIWFTVYKGAEVAHFMNALRYDAMALGNHEFDNGVEGLIEPLLKEAKFPILSANIKAKGPLASQISGLYLPYKVLPVGDEVVGIVGYTSKETPFLSNPGTNLVFEDEITALQPEVDKLKTLNVNKIIALGHSGFEMDKLIAQKVRGVDVVVGGHSNTFLYTGNPPSKEVPAGKYPFIVTSDDGRKVPVVQAYAFGKYLGYLKIEFDERGNVISSHGNPILLNSSIPEDPSIKADINKWRIKLDNYSTQELGKTIVYLDGSSQSCRFRECNMGNLICDAMINNNLRHTDEMFWNHVSMCILNGGGIRSPIDERNNGTITWENLAAVLPFGGTFDLVQLKGSTLKKAFEHSVHRYGQSTGEFLQVGGIHVVYDLSRKPGDRVVKLDVLCTKCRVPSYDPLKMDEVYKVILPNFLANGGDGFQMIKDELLRHDSGDQDINVVSTYISKMKVIYPAVEGRIKFS
B2: membrane-bound CD73 (MDA-MB-231 membrane preparation) (Homo sapiens) (protein)
chain: WELTILHTNDVHSRLEQTSEDSSKCVNASRCMGGVARLFTKVQQIRRAEPNVLLLDAGDQYQGTIWFTVYKGAEVAHFMNALRYDAMALGNHEFDNGVEGLIEPLLKEAKFPILSANIKAKGPLASQISGLYLPYKVLPVGDEVVGIVGYTSKETPFLSNPGTNLVFEDEITALQPEVDKLKTLNVNKIIALGHSGFEMDKLIAQKVRGVDVVVGGHSNTFLYTGNPPSKEVPAGKYPFIVTSDDGRKVPVVQAYAFGKYLGYLKIEFDERGNVISSHGNPILLNSSIPEDPSIKADINKWRIKLDNYSTQELGKTIVYLDGSSQSCRFRECNMGNLICDAMINNNLRHTDEMFWNHVSMCILNGGGIRSPIDERNNGTITWENLAAVLPFGGTFDLVQLKGSTLKKAFEHSVHRYGQSTGEFLQVGGIHVVYDLSRKPGDRVVKLDVLCTKCRVPSYDPLKMDEVYKVILPNFLANGGDGFQMIKDELLRHDSGDQDINVVSTYISKMKVIYPAVEGRIKFSTGSHCHGSFSLIFLSLWAVIFVLYQ

Assays:
[1] = substrate: Nc1ncnc2c1ncn2[C@@H]1O[C@H](COP(=O)(O)O)[C@@H](O)[C@H]1O; experiment: purified protein, by the assay type; assay type: biochemical, human; settings: other: substrate AMP
[2] = substrate: Nc1ncnc2c1ncn2[C@@H]1O[C@H](COP(=O)(O)O)[C@@H](O)[C@H]1O; experiment: radiometric CD73 assay, membrane preparations of MDA-MB-231 cells; assay type: biochemical, human; settings: other: substrate AMP; membrane preparation; 37.0 °C

Protein | Km [1] | Km [2]
B1 | 17.0 ± 2.1 µM | 
B2 |  | 14.8 ± 2.1 µM
